Two molecules from paper PMC3675627, “Structures of Arenaviral Nucleoproteins with Triphosphate dsRNA Reveal a Unique Mechanism of Immune Suppression*” can be followed below.

Data set [1] concerns the target T1, LASV NP-C (catalytically active exoribonuclease domain) (Lassa virus, UniProt P13699 364-569). The experiment in a line: X-ray crystallography, 1.68 A; […], pH 5.5, room temperature; […]. To be noted: protein: recombinant; 5' overhang 4 nt on complementary strand.
For data set [2], the target named is T1, LASV NP-C (catalytically active …). The experiment in a line: […], pH 5.5, room temperature; […]. To be noted: protein: recombinant; blunt; self-complementary, 2 copies of one strand.

T1 sequence (P13699 364-569): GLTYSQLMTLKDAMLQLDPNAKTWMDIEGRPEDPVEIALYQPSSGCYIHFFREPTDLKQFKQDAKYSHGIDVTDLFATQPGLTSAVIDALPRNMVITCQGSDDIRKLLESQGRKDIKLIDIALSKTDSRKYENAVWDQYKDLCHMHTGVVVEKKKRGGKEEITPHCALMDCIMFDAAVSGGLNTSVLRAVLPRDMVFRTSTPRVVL

B1: cleaved intermediate of the 5'-ppp dsRNA (4-nt cleaving strand, 8-nt complementary strand) (dsRNA)
RNA 1: GGGC
RNA 2: GGGCGCCC
modifications: 5'-triphosphate
Regarding B1, in data set [1], the binding result is listed as “binds”.

B2: 8-bp 5'-ppp dsRNA (input) (dsRNA)
RNA 1: GGGCGCCC
RNA 2: GGGCGCCC
modifications: 5'-triphosphate
For the molecule B2, the binding result in data set [2] was “binds”.
